Source: IntAct's records for PubMed 35512704

B1: Speckle-type POZ protein (Homo sapiens), O43791 (parent)
chain: MSRVPSPPPPAEMSSGPVAESWCYTQIKVVKFSYMWTINNFSFCREEMGEVIKSSTFSSGANDKLKWCLRVNPKGLDEESKDYLSLYLLLVSCPKSEVRAKFKFSILNAKGEETKAMESQRAYRFVQGKDWGFKKFIRRDFLLDEANGLLPDDKLTLFCEVSVVQDSVNISGQNTMNMVKVPECRLADELGGLWENSRFTDCCLCVAGQEFQAHKAILAARSPVFSAMFEHEMEESKKNRVEINDVEPEVFKEMMCFIYTGKAPNLDKMADDLLAAADKYALERLKVMCEDALCSNLSVENAAEILILADLHSADQLKTQAVDFINYHASDVLETSGWKSMVVSHPHLVAEAYRSLASAQCPFLGPPRKRLKQS

Variants of: B1
Conditions: with rl5_human RPL5, P46777

Variant | effect of a mutation on the interaction
F133L | with no effect

Variants of: B1
Conditions: with rs15_human RPS15, P62841

Variant | effect of a mutation on the interaction
F133L | with no effect

Variants of: B1
Conditions: with rptor_human RPTOR

Variant | effect of a mutation on the interaction
F133L | with no effect

Variants of: B1
Conditions: with rxra_human RXRA

Variant | effect of a mutation on the interaction
F133L | with no effect

Variants of: B1
Conditions: with sdha_human SDHA

Variant | effect of a mutation on the interaction
F133L | with no effect

Variants of: B1
Conditions: with setbp_human SETBP1, Q9Y6X0

Variant | effect of a mutation on the interaction
F133L | with no effect

Variants of: B1
Conditions: with sf3b1_human SF3B1, O75533

Variant | effect of a mutation on the interaction
F133L | with no effect

Variants of: B1
Conditions: with skp2_human SKP2, Q13309

Variant | effect of a mutation on the interaction
F133L | with no effect

Variants of: B1
Conditions: with smad1_human SMAD1, Q15797

Variant | effect of a mutation on the interaction
F133L | with no effect

Variants of: B1
Conditions: with smca4_human SMARCA4, P51532

Variant | effect of a mutation on the interaction
F133L | with no effect

Variants of: B1
Conditions: with snf5_human SMARCB1, Q12824
snf5_human SMARCB1, Q12824, sequence (Q12824 whole entry): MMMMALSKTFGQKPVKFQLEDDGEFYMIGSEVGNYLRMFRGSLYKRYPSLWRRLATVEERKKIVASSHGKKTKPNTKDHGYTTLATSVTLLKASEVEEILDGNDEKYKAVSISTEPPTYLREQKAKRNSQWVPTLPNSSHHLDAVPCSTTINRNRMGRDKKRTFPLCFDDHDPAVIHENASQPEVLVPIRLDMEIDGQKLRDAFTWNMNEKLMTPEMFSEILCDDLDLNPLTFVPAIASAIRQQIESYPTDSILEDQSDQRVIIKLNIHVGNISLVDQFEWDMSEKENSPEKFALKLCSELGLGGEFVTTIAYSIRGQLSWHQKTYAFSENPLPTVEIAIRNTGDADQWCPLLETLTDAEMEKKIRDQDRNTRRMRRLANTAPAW

Variant | effect of a mutation on the interaction
F133L | with no effect

Variants of: B1
Conditions: with smo_human SMO

Variant | effect of a mutation on the interaction
F133L | with no effect

Variants of: B1
Conditions: with smuf1_human SMURF1, Q9HCE7

Variant | effect of a mutation on the interaction
F133L | with no effect

Variants of: B1
Conditions: with socs1_human SOCS1, O15524
socs1_human SOCS1, O15524, sequence (O15524 whole entry): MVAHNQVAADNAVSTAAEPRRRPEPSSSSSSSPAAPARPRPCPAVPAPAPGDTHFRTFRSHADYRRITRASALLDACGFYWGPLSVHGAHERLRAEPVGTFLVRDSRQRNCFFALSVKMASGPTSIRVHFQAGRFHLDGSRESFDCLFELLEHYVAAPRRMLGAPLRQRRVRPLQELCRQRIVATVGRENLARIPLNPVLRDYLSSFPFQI

Variant | effect of a mutation on the interaction
F133L | with no effect

Variants of: B1
Conditions: with sox10_human SOX10, P56693

Variant | effect of a mutation on the interaction
F133L | with no effect

Variants of: B1
Conditions: with sox2_human SOX2, P48431

Variant | effect of a mutation on the interaction
F133L | with no effect

Variants of: B1
Conditions: with src_human SRC

Variant | effect of a mutation on the interaction
F133L | with no effect

Variants of: B1
Conditions: with whr1_human WHR1, P49842

Variant | effect of a mutation on the interaction
F133L | with no effect

Variants of: B1
Conditions: with stk38_human STK38, Q15208

Variant | effect of a mutation on the interaction
F133L | with no effect

Variants of: B1
Conditions: with eloc_human ELOC

Variant | effect of a mutation on the interaction
F133L | with no effect

Variants of: B1
Conditions: with tfe2_human TCF3, P15923

Variant | effect of a mutation on the interaction
F133L | with no effect

Variants of: B1
Conditions: with tead1_human TEAD1, P28347

Variant | effect of a mutation on the interaction
F133L | with no effect

Variants of: B1
Conditions: with tead3_human TEAD3, Q99594

Variant | effect of a mutation on the interaction
F133L | with no effect

Variants of: B1
Conditions: with tead4_human TEAD4, Q15561

Variant | effect of a mutation on the interaction
F133L | with no effect

Variants of: B1
Conditions: with tet2_human TET2, Q6N021

Variant | effect of a mutation on the interaction
F133L | with no effect

Variants of: B1
Conditions: with TMEM106B

Variant | effect of a mutation on the interaction
F133L | with no effect

Variants of: B1
Conditions: with tnr14_human TNFRSF14, Q92956
tnr14_human TNFRSF14, Q92956, sequence (Q92956 whole entry): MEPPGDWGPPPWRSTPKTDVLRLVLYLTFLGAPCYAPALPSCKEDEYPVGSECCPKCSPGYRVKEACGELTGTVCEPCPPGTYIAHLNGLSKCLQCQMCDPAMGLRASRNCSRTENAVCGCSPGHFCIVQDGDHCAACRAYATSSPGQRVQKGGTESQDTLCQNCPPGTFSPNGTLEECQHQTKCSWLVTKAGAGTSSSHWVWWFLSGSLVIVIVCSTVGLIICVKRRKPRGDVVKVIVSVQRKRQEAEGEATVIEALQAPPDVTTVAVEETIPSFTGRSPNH

Variant | effect of a mutation on the interaction
F133L | with no effect

Variants of: B1
Conditions: with tshr_human TSHR

Variant | effect of a mutation on the interaction
F133L | with no effect

Variants of: B1
Conditions: with vegfa_human VEGFA

Variant | effect of a mutation on the interaction
F133L | with no effect

Variants of: B1
Conditions: with vhl_human VHL

Variant | effect of a mutation on the interaction
F133L | with no effect

Variants of: B1
Conditions: with wee1_human WEE1, P30291

Variant | effect of a mutation on the interaction
F133L | with no effect

Variants of: B1
Conditions: with wwtr1_human WWTR1, Q9GZV5

Variant | effect of a mutation on the interaction
F133L | with no effect

Variants of: B1
Conditions: with xpo1_human XPO1, O14980

Variant | effect of a mutation on the interaction
F133L | with no effect

Variants of: B1
Conditions: with asxl2_human ASXL2, Q76L83

Variant | effect of a mutation on the interaction
F133L | causing an interaction

Variants of: B1
Conditions: with ufo_human AXL

Variant | effect of a mutation on the interaction
F133L | causing an interaction

Variants of: B1
Conditions: with birc2_human BIRC2, Q13490
birc2_human BIRC2, Q13490, sequence (Q13490 whole entry): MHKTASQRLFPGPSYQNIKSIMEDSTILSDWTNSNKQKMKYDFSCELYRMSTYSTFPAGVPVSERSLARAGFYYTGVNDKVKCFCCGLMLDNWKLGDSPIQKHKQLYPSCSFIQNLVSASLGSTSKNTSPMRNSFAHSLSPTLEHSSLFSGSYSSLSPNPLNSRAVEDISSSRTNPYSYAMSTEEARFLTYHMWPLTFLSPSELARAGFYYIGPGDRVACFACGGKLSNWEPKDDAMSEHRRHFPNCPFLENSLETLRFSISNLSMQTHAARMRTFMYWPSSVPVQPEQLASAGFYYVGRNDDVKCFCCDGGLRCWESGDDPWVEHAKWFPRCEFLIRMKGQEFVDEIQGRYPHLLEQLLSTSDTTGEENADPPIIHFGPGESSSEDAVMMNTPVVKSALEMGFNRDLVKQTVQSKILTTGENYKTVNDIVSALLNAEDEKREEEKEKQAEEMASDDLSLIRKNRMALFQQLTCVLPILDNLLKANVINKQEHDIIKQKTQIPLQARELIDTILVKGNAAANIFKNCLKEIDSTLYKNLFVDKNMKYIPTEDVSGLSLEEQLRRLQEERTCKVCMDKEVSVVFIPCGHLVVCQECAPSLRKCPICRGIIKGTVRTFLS

Variant | effect of a mutation on the interaction
F133L | causing an interaction

Variants of: B1
Conditions: with cul4b_human CUL4B

Variant | effect of a mutation on the interaction
F133L | causing an interaction

Variants of: B1
Conditions: with jak1_human JAK1, P23458
jak1_human JAK1, P23458, sequence (P23458 whole entry): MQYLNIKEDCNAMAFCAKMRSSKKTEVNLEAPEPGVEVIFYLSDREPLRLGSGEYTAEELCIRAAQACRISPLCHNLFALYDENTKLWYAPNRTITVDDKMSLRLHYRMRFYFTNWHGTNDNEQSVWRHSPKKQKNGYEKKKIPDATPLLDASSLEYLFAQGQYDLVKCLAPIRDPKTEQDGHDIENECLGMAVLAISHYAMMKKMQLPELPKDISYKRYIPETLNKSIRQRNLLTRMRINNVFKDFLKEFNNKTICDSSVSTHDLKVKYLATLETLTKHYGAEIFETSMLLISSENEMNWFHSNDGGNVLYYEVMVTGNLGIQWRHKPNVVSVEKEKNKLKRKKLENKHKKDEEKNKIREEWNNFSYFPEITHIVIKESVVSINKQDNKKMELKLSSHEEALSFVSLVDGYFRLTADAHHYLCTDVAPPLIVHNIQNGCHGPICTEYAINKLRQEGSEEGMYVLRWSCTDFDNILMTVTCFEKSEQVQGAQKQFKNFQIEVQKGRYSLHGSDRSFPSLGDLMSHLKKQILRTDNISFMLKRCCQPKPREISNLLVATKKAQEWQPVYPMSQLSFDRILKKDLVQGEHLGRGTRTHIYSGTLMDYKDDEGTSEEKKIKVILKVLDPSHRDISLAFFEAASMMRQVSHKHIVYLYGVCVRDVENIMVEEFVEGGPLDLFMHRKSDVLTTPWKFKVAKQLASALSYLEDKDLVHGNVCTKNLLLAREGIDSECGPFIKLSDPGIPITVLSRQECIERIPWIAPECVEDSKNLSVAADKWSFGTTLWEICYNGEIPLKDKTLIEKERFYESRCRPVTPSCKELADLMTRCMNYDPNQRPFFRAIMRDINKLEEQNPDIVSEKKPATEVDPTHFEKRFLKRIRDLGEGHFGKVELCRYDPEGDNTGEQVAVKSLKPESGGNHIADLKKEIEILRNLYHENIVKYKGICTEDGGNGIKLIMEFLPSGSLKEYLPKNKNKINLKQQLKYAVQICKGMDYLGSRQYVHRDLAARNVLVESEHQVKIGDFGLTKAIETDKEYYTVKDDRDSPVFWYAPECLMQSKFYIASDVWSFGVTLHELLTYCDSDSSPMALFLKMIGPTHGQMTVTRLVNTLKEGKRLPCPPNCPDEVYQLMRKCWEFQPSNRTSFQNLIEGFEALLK

Variant | effect of a mutation on the interaction
F133L | causing an interaction

Variants of: B1
Conditions: with pk3cb_human PIK3CB

Variant | effect of a mutation on the interaction
F133L | causing an interaction

Variants of: B1
Conditions: with tsc2_human TSC2, P49815
tsc2_human TSC2, P49815, sequence (P49815 whole entry): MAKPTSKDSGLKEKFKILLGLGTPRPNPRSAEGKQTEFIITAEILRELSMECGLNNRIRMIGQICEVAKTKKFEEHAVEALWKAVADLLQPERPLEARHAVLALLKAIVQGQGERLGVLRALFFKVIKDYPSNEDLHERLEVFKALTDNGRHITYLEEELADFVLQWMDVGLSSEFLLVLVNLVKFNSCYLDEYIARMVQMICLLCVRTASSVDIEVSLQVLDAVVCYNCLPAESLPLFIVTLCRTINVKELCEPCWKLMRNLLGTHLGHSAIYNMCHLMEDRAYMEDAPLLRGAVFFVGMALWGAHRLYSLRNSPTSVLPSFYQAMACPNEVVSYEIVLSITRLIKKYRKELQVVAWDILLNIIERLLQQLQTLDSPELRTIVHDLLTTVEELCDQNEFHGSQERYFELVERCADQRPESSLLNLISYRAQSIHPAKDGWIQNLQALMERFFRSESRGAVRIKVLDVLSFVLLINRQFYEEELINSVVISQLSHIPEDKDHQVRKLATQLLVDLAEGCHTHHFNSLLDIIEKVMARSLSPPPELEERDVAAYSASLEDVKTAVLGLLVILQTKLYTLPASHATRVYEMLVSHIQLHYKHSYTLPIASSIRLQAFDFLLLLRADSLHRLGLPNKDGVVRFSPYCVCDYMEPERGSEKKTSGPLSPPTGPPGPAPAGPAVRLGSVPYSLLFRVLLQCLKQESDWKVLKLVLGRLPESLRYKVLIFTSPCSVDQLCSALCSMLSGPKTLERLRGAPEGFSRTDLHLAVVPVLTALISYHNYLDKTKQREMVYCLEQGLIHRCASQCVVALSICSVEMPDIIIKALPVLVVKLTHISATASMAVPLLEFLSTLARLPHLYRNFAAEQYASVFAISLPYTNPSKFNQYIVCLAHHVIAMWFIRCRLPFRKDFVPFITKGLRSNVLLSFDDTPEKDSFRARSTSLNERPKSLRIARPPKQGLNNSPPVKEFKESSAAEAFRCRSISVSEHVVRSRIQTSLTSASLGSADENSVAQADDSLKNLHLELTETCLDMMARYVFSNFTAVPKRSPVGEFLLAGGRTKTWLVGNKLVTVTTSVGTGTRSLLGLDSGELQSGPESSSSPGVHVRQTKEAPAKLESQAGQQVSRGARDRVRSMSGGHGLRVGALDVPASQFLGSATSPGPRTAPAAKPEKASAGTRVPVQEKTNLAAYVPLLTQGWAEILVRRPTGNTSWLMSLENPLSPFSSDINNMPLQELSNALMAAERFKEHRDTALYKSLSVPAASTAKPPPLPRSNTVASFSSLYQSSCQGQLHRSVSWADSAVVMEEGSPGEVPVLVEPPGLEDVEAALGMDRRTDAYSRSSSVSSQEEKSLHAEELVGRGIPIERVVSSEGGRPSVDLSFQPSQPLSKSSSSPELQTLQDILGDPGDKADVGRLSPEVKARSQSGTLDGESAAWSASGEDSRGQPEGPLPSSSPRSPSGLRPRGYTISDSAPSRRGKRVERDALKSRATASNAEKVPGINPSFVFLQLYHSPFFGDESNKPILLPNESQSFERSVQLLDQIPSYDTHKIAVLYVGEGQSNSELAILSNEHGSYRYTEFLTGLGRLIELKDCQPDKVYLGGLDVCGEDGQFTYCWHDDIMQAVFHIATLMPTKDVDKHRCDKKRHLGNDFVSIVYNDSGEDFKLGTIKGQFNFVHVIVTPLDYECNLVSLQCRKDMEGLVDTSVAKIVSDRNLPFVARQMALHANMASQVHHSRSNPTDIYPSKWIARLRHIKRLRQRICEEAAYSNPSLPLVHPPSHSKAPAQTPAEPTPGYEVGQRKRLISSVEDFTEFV

Variant | effect of a mutation on the interaction
F133L | causing an interaction

Variants of: B1
Conditions: with birc2_human BIRC2, Q13490
Remark: another data set of the same source

Variant | effect of a mutation on the interaction
F133L | increasing interaction strength

Variants of: B1
Conditions: with cblb_human CBLB

Variant | effect of a mutation on the interaction
F133L | causing an interaction

Variants of: B1
Conditions: with e2f5_human E2F5, Q15329

Variant | effect of a mutation on the interaction
F133L | causing an interaction

Variants of: B1
Conditions: with gata1_human GATA1, P15976
gata1_human GATA1, P15976, sequence (P15976 whole entry): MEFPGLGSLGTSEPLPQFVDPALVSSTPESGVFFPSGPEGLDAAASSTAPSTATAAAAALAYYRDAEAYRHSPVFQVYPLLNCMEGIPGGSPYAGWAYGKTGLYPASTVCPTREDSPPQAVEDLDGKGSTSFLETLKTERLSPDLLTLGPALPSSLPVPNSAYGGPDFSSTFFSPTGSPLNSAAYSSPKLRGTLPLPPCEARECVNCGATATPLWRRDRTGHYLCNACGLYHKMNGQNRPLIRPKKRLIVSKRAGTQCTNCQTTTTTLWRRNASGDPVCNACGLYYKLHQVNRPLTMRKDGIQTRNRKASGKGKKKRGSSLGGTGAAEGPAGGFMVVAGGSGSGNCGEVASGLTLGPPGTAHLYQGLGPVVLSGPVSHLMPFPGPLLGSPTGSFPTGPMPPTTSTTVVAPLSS

Variant | effect of a mutation on the interaction
F133L | increasing interaction strength

Variants of: B1
Conditions: with igf1r_human IGF1R

Variant | effect of a mutation on the interaction
F133L | increasing interaction strength

Variants of: B1
Conditions: with esr1_human ESR1, P03372

Variant | effect of a mutation on the interaction
F133L | decreasing interaction strength
